In article PMC9463662, “Selection of DNA aptamer and its application as an electrical biosensor for Zika virus detection in human serum”:

Experiments:
[1] = biological target: T1, Zika virus envelope protein (Zika virus, UniProt A0A221S5X1 1-403); assay: bead-based fluorescence binding assay; protein on streptavidin beads; details: protein: commercial
[2] = biological target: T1, Zika virus envelope protein; assay: capacitance biosensor; aptamer/MXene on Au micro-gap electrode; DIW or 10% human serum; LOD 38.14 pM in serum; details: protein: commercial
[3] = biological target: albumin (bovine serum albumin in sensor test) (UniProt P02769 25-607); assay: capacitance biosensor; bovine serum albumin
Chain of albumin (bovine serum albumin in sensor test) (P02769 25-607): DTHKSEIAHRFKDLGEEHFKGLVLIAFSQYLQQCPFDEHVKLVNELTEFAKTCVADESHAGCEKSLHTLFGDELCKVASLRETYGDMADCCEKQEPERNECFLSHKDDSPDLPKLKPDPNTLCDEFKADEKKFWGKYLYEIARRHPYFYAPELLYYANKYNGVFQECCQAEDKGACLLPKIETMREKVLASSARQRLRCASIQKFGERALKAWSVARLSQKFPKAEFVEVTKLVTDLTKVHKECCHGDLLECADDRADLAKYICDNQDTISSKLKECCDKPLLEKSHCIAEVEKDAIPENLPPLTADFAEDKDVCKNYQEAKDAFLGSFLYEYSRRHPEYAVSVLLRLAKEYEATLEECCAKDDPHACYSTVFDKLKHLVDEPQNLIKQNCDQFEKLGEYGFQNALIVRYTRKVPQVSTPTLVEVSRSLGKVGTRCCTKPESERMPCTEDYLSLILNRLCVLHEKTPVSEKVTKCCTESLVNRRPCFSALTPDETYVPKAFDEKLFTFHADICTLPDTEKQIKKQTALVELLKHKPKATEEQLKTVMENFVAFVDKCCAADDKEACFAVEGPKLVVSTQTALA

| Binder | Kd [1] [nM] | binding result [2] | binding result [3] |
| --- | --- | --- | --- |
| Zika-07 (Zika-7) aptamer, 5'-FAM (ssDNA) DNA: TGACACCGTACCTGCTCTAGTGCGCACTGAACGATCCTGCGTCAAGTTCAAGGTTGTGAAGCACGCCAAGGGACTAT | 107 ± 1.9 | – | – |
| thiol-modified Zika-07 aptamer (ssDNA, 5'-SH) DNA: TGACACCGTACCTGCTCTAGTGCGCACTGAACGATCCTGCGTCAAGTTCAAGGTTGTGAAGCACGCCAAGGGACTAT | – | binds | no binding |
| Zika-25 aptamer, 5'-FAM (ssDNA) DNA: TGACACCGTACCTGCTCTAAGCACGCCAAGGGACTATAGGTTGACACCGTACCTGCTCTAAGCACGCCAAGGGACTAT | 226 ± 9.6 | – | – |
